Assay results reported in article PMC10885410, “Mining and functional characterization of NADPH-cytochrome P450 reductases of the DNJ biosynthetic pathway in mulberry leaves” (BMC Plant Biology, 2024).

Assays:
[1] = tested on: NC(=O)C1=CN([C@@H]2O[C@H](COP(=O)(O)OP(=O)(O)OC[C@H]3O[C@@H](n4cnc5c(N)ncnc54)[C@H](OP(=O)(O)O)[C@@H]3O)[C@@H](O)[C@H]2O)C=CC1; assay: purified protein; settings: cytochrome c 200 μM, 50 mM Tris-HCl pH 7.4, 0.1 mM EDTA, 25 °C, varied: cofactor
[2] = biological target: T1, MaC3'H-MaCPR2 (Morus alba, UniProt A0A5P9L9Q5); assay: yeast feeding, product by HPLC and LC-MS; format: cell-based; settings: 100 μM fed to yeast culture, 48 h, 30 °C; needs co-expressed MaCPR2
T1 construct: full ORFs of MaC3'H and MaCPR2 (715 aa) co-expressed from pESC-Trp (GAL1/GAL10) in Saccharomyces cerevisiae INVSc1; with NADPH--cytochrome P450 reductase
T1 sequence (A0A5P9L9Q5 1-509): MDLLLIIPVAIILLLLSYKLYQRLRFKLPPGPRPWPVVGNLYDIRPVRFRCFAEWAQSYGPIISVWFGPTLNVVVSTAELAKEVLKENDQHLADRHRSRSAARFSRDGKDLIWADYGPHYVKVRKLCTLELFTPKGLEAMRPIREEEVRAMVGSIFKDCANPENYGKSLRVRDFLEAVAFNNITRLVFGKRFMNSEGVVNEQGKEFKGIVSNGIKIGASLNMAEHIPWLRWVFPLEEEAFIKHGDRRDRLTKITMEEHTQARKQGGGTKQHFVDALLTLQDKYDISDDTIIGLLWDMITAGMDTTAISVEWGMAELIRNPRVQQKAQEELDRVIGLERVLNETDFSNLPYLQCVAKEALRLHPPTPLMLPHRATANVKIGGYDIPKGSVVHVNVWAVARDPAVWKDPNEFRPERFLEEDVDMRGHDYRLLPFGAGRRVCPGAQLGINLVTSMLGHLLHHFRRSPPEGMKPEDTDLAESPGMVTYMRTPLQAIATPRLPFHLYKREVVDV

Compound MaCPR2 (Morus alba) has a Km [1] of 13.93 ± 1.54 µM and a Vmax [1] of 2.43 µmol/min/mg.
With `O=C(/C=C/c1ccc(O)c(O)c1)O[C@@H]1C[C@](O)(C(=O)O)C[C@@H](O)[C@H]1O` [chlorogenic acid] the “yeast feeding, product by HPLC and LC-MS” value [2] was “expected product chlorogenic acid was detected in MaC3'H-MaCPR2/pESC-Trp/INVSCI engineered bacteria”.
`O=C(/C=C/c1ccc(O)cc1)O[C@@H]1C[C@](O)(C(=O)O)C[C@@H](O)[C@H]1O` [3-O-p-coumaroylquinic acid] was tested, and the “yeast feeding, product by HPLC and LC-MS” value [2] was “transfers electrons to MaC3'H hydroxylase, thus transforming 3-O-p-coumaroylquinic acid into chlorogenic acid”.
